{
  "source": "patent US10053716B2",
  "about": "“4-amino cinnamic acid production method using enzyme” (JAPAN SCIENCE AND TECHNOLOGY AGENCY, priority 2014, dated 2018)",
  "type_in_all_cases": "biochemical",
  "key": {"[1]": {"assay": "4APAL activity of Escherichia coli recombinant enzyme crude extract", "conditions": "crude extract, NST37(DE) host, 20 mM 4-aminophenylalanine", "description": "(§1) [Measurement of Enzyme Activity of Escherichia coli Recombinant Enzyme Crude Extract]\n(§2) Escherichia coli was inoculated into 5 ml of LB medium containing 100 mg/L ampicillin sodium or 100 mg/L kanamycin sulfate, and cultured overnight at 37° C. It was then inoculated into 200 ml of the same culture medium and cultured to an O.D. of 0.6, isopropyl-β-thiogalactopyranoside (IPTG) was added to a final concentration of 0.5 mM, and culturing was conducted for 12 hours at 28° C.\n(§3) The cultured cells were collected and suspended in 20 mM potassium phosphate buffer (pH 7.5) and subjected to ultrasonic disruption and the supernatant was used as a crude extract for activity measurement. The enzyme activity was measured and quantified by measuring the absorbance at the absorption wavelength of the reaction product using a spectrophotometer, for a period of 5 minutes. For PAL activity, the crude extract was added to 100 mM Tris Buffer (pH 8.0) and 20 mM phenylalanine, reaction was conducted, and production of cinnamic acid was measured by the change in absorbance at a wavelength of 290 nm, while for 4APAL activity, 20 mM 4-aminophenylalanine was used as substrate and the absorbance at a wavelength of 315 nm due to 4-aminocinnamic acid was measured and quantified."}, "[2]": {"assay": "PAL activity of Escherichia coli recombinant enzyme crude extract", "conditions": "crude extract, NST37(DE) host, 20 mM phenylalanine", "description": "as §1, §2, §3"}, "[3]": {"assay": "Km and kcat of recombinant purified enzyme for phenylalanine", "conditions": "purified His-tag enzyme", "description": "(§4) [Measurement of Enzyme Activity of Escherichia coli Recombinant Purified Enzyme]\n(§5) Escherichia coli was inoculated into 5 ml of LB medium containing 100 mg/L ampicillin sodium or 100 mg/L kanamycin sulfate, and cultured overnight at 37° C. It was then used to inoculate 200 ml of the same culture medium and cultured to an O.D of 0.6, IPTG was added to a final concentration of 0.5 mM, and the incubation was continued for 12 hours at 28° C. The rotational speed during cultures was 120 rpm. The cultured cells were collected and suspended in 20 mM potassium phosphate buffer (pH 7.5) and subjected to ultrasonic disruption, and after centrifugal separation, the supernatant was purified using a His-Trap column and the enzyme activity was measured. The method of measuring the enzyme activity was according to the method for the crude extract described above.\n(§6) Since pET28AtPAL4 and its mutants and RgPAL were produced as fusion proteins with His-tag in the Escherichia coli of Example 3, these enzymes could be easily purified using an affinity column. After culturing the producing cells, the cells were collected, disrupted and purified. The purified enzymes were used to calculate the Km values and kcat values."}, "[4]": {"assay": "Km and kcat of recombinant purified enzyme for 4-aminophenylalanine", "conditions": "purified His-tag enzyme", "description": "as §4, §5, §6"}},
  "data": [
    {"substance": "AtPAL4: PAL derived from the plant Arabidopsis thaliana, amino acid sequence SEQ ID NO: 4", "values": [
      {"measurement": "4APAL activity", "setting": "[1]", "value": 0.012, "unit": "µmol/min/mg"},
      {"measurement": "PAL activity", "setting": "[2]", "value": 0.18, "unit": "µmol/min/mg"},
      {"measurement": "Kcat value, Phenylalanine", "setting": "[3]", "value": 5.1, "unit": "s⁻¹"},
      {"measurement": "Kcat value, 4-Aminophenylalanine", "setting": "[4]", "value": ">0.40", "unit": "s⁻¹"},
      {"measurement": "Km", "setting": "[4]", "value": "> 40", "unit": "mM"}
    ]}
  ]
}
